Source: patent US20130217685, “COMPOUNDS FOR MODULATING RNA BINDING PROTEINS AND USES THEREFOR” (UNIVERSITY OF MASSACHUSETTS, published 2013)

Biological target: T1, MEX-5 TZF domain (236-350) (Caenorhabditis elegans, UniProt Q9XUB2 Q9XUB2:236-350)
T1 sequence: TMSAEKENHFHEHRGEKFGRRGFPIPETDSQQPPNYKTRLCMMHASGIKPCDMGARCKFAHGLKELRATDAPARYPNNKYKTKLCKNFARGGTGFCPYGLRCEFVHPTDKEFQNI
Assay: EMSA; 120 nM protein, 2-3 nM RNA; compound dose response (compound E IC50 2.0 uM)
Conditions: tags: N-terminal MBP (pMal-c, NEB); ORFeome clone, Open Biosystems; label: 3'-fluorescein
Experimental: A further dose response assay was performed on select compounds of the invention as described below. A sub-saturating concentration of MEX-5 or POS-1 (120 nM) was equilibrated with limiting fluorescein labeled RNA (2-3 nM, TCR2 RNA or MEX-3 UTR fragment RNA respectively) in the presence of varying concentrations of compound. Following equilibration, the reactions were loaded onto a 5% slab polyacrylamide gel and subjected to electrophoresis for about 1 hour to separate protein-RNA complex from free RNA. The gel was scanned on a FUJI FLA-5000 imager, and the fraction of bound RNA determined by dividing the intensity of the bound RNA by the intensity of the bound RNA plus the free RNA. The fraction of […] was plotted as a function of compound concentration and fit to a sigmoidal dose response function in order to determine the IC₅₀, the concentration that gives half maximal inhibition.

Binder: UUUCUUUAUAACUUGUUACAAUUUUUGAAA (ssRNA) [TCR2]
- binding result: binds
